Results on 4 molecules are retold here after PMC9426481, “Structure and Function of BcpE2, the Most Promiscuous GH3-Family Glucose Scavenging Beta-Glucosidase” (mBio, 2022).

Data set [1] addresses T1, BcpE2 (Streptomyces scabiei, UniProt C9ZDY4).
T1 construct: gene SCAB_64101; BcpE2-His6
Put plainly: TLC hydrolysis assay with purified enzyme (complete hydrolysis). The format is biochemical.

Data set [2] deals with T2, BglC (His6-BglC) (Streptomyces scabiei, UniProt C9Z448).
T2 construct: gene SCAB_57721; N-terminal His6 tag kept; plasmid pSAJ022; host E. coli BL21(DE3) Rosetta
T2 sequence (C9Z448 entry or part of it): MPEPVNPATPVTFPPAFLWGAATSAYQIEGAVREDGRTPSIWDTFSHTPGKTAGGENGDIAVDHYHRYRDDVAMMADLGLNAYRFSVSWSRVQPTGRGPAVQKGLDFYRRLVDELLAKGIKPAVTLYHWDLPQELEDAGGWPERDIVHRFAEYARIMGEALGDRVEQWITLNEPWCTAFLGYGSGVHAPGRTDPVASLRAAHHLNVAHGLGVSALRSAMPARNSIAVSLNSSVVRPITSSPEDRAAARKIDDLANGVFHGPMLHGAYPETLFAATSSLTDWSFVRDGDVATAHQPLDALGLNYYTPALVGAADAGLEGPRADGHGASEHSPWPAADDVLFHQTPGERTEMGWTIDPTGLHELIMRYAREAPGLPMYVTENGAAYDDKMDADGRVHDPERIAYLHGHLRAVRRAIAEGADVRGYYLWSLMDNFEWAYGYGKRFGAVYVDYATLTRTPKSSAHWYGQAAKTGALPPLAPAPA
Put plainly: glucose release; substrate inhibition fit. Type of data set: biochemical. The conditions noted are these: Ki of substrate inhibition.

Substrate in data set [3]: OC/C=C/c1ccc(O[C@@H]2O[C@H](CO)[C@@H](O)[C@H](O)[C@H]2O)cc1
Put plainly: purified protein. Type of data set: biochemical, Streptomyces scabiei.

Substrate in data set [4]: COc1cc2ccc(=O)oc2cc1O[C@@H]1O[C@H](CO)[C@@H](O)[C@H](O)[C@H]1O
Put plainly: purified protein. The format is biochemical, Streptomyces scabiei.

Substrate in data set [5]: OC[C@H]1O[C@@H](O[C@H]2[C@H](O)[C@@H](CO)OC(O)[C@@H]2O)[C@H](O)[C@@H](O)[C@@H]1O
Put plainly: Hydrolysis kinetics (glucose release, Km) and TLC with purified enzyme. Type of data set: biochemical, Streptomyces scabiei.

Substrate in data set [6]: COc1cc(/C=C/CO)ccc1O[C@@H]1O[C@H](CO)[C@@H](O)[C@H](O)[C@H]1O
Described as above. Type of data set: biochemical, Streptomyces scabiei.

Substrate in data set [7]: OCc1ccccc1O[C@@H]1O[C@H](CO)[C@@H](O)[C@H](O)[C@H]1O
The data set is described as above. The format is biochemical, Streptomyces scabiei.

Substrate in data set [8]: COc1cc(/C=C/CO)cc(OC)c1O[C@@H]1O[C@H](CO)[C@@H](O)[C@H](O)[C@H]1O
The description is as above. Type of data set: biochemical, Streptomyces scabiei.

Substrate in data set [9]: OC[C@H]1O[C@@H](Oc2ccc(O)cc2)[C@H](O)[C@@H](O)[C@@H]1O
The data set is described as above. The format is biochemical, Streptomyces scabiei.

Take `CC(C)(C#N)O[C@@H]1O[C@H](CO)[C@@H](O)[C@H](O)[C@H]1O` [Linamarin]: the “TLC hydrolysis assay with purified enzyme (complete hydrolysis)” value in data set [1] is on record as “Linamarin|Cyanogenic glycosides|+|−|NT|NT|NT|NT”.

As for `COc1cc2ccc(=O)oc2cc1O[C@@H]1O[C@H](CO)[C@@H](O)[C@H](O)[C@H]1O` [Scopolin], the Ki entry in data set [2] is reported as “the Ki value for BcpE2 appeared to be lower, indicating a stronger inhibition compared to BglC”.

With `OC[C@H]1O[C@@H](Oc2cc3c(O[C@@H]4O[C@H](CO)[C@@H](O)[C@H](O)[C@H]4O)cc(O)cc3[o+]c2-c2ccc(O)c(O)c2)[C@H](O)[C@@H](O)[C@@H]1O` [Cyanin], in data set [1], the “TLC hydrolysis assay with purified enzyme (complete hydrolysis)” value is “Cyanin (Cyanidin-3,5-di-O-glucoside)|Antho-cyanosides|+|−|NT|NT|NT|NT”.

B1: BcpE2 (Streptomyces scabiei 87.22) (protein)
chain: MAATPGTRTTPADEAREAAVEKALAALDLDAKARLLSGQDMWTLPALPEIGLASLVMSDGPIGVRGVRWTADDPSVALPSPTALAATWDPGLARRAGVLLAQEARRKGVHVLLAPTVNLHRSPLGGRHFEAYSEDPYLTGEIGSGYVTGVQAGGVGTTVKHFVANDAETDRFTVNNLVSARALRELYLAPFEAIVANAHPWGIMTAYNQVNGSTMTEHRYLVNEVLRGEWGFDGFNVSDWLAARSTTGALTGGLDVAMPGPATVYGEPLAAAVRAGEVTESLLDEAVRRVLRLAARVGILEGAAPAVTELPAPVDGEALAREIARRSFVLVRNEVRDGRAALPLEQGATVALIGAAARDARVLGGGSATVFPARVVSPLDGLTAALPEGAPTYALGADPNEELAVADTGFTLRAVCRDASGTVIGTRSAPNGHIQWMGSDLPDGVTHATLHSVELTGTFTPRETGTHTFGVKGLGAYTLTVDGTTHFDGVRTTDTDDPFVSFFGAPVPLAEVELTEGTPLEVSLTHVVELAADAPITMLAFSLCHQEPQRDPDELIAEAVEAARAADTAVVVVATTERVESEGFDRKDLRLPGRQDDLVRAVAAANPATVVVVNAGSPVELPWREDVAAVLLTWFPGQEGGAALAEVLTGAHEPGGRLPTTWGSLTGAPVTQVTPTAGELVYDEGVFIGYRAWDKEDRTPTYPFGHGLGYTDWTYESLDVTGTTATVRVRNTGTREGRETVQLYLAPTTADENRPTRWLAGFATVEAAPGETAEAVVRLPRRAFEIWDETTGAWVYVTGSYEVAAGRSIADRRTRVTIEAP
notes: BcpE2-His6
As a reminder, the Km is the concentration of substrate that gives half-maximal velocity. As a reminder, the kcat is the number of substrate molecules converted per active site and unit of time at saturation. As a reminder, the kcat/Km is the second-order rate constant that governs catalysis at low substrate concentration. On to B1, for which the Michaelis-Menten constant (Km) stood at 236 µM in data set [3]; 356 µM in [4]; 6557 ± 1410 µM in data set [5]; 151 ± 43 µM in data set [6]; 142 ± 30 µM in data set [7]; 608 ± 166 µM in data set [8]. Further, the Michaelis constant (Km) in data set [9] worked out at 367 ± 80 µM. The catalytic constant (kcat) turned out to be 77.2 s⁻¹ in data set [3]; 192 s⁻¹ in data set [4]; 8.74 ± 1.02 s⁻¹ in [5]; 83.3 ± 5.9 s⁻¹ in [6]; 53.2 ± 2.37 s⁻¹ in [7]; 26.4 ± 3.07 s⁻¹ in data set [8]. For the same molecule, the catalytic constant (kcat) in data set [9] was determined as 43.2 ± 2.5 s⁻¹. Also, the kcat/Km is 326000 M⁻¹ s⁻¹ in [3]; 540000 M⁻¹ s⁻¹ in [4]; 1330 M⁻¹ s⁻¹ in [5]; 551000 M⁻¹ s⁻¹ in data set [6]; 376000 M⁻¹ s⁻¹ in [7]; 43500 M⁻¹ s⁻¹ in data set [8]. In addition, the kcat/Km in data set [9] was 117000 M⁻¹ s⁻¹.
